Reference: publication PMC5125647, “Multivalent Interactions of Human Primary Amine Oxidase with the V and C2_(2) Domains of Sialic Acid-Binding Immunoglobulin-Like Lectin-9 Regulate Its Binding and Amine Oxidase Activity” (PLoS ONE, 2016)
Numbering of substitutions follows the chain as printed. Names and notes keep the numbering of the source.

What was measured:
[1] = target: T1, human primary amine oxidase (hAOC3) (human, UniProt Q16853 1-763, topaquinone (TPQ) cofactor, modified from Tyr471; N-glycans attached to N137, N232, N294, N592, N618 and N666, with sialic acids); assay: cell-based or functional assay
T1 sequence: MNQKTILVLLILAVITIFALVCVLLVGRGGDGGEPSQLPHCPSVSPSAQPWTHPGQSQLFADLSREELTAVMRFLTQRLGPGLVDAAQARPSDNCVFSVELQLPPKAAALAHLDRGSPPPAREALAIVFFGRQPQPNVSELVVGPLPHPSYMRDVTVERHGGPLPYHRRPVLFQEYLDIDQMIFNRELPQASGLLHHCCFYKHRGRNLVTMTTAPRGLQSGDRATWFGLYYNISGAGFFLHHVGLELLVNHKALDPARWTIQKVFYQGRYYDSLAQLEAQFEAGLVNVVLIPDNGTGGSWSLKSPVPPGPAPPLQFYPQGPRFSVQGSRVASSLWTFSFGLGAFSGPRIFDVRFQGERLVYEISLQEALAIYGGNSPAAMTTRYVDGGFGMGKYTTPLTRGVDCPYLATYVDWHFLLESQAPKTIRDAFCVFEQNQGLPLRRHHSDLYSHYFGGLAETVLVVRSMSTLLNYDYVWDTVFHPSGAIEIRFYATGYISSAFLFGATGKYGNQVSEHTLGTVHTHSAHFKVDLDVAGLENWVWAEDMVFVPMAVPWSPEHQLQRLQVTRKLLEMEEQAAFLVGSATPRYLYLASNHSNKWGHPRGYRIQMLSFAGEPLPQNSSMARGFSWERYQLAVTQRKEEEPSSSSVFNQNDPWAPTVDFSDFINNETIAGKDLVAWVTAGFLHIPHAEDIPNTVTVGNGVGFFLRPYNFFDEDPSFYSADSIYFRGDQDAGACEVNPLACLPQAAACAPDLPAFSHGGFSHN

[2] = target: the molecule itself; assay: SEC; Superdex 200 10/300 GL, 20 mM HEPES pH 7.4, 150 mM NaCl; size from the retention time against standard proteins
[3] = target: T1, human primary amine oxidase (hAOC3); assay: SPR; hAOC3 immobilised; five to seven concentrations of Siglec-9-EC, R284S or R290S; kon and koff determined separately for every curve with Biaeval, Kd as their ratio; average without the highest and lowest value; conditions: both partners purified
[4] = target: T1, human primary amine oxidase (hAOC3); assay: as above; conditions: both partners purified; remark: listed apart in the source
[5] = target: T1, human primary amine oxidase (hAOC3); assay: SPR; BiacoreX; hAOC3 amine-coupled to a CM5 chip (10 000 RU); 20 ul of 0.3-31 uM Siglec-9-EC injected at 25 C; running buffer HBS (10 mM HEPES, 150 mM NaCl, pH 7.4) with 0.005% Surfactant-P20; apparent Kd from responses at the end of injection against concentration, steady state and one-to-one model assumed, non-linear regression (GraphPad); two protein preparations; conditions: both partners purified
[6] = target: T1, human primary amine oxidase (hAOC3); assay: SPR; hAOC3 immobilised; one concentration (0.5 uM) of each Siglec-9 protein; relative binding normalised to the first control condition; conditions: both partners purified

B1: Siglec-9-EC (extracellular region of sialic acid-binding immunoglobulin-like lectin-9, V-C2_(12); residues 26-348) (domain or fragment, UniProt Q9Y336 26-348, looked up)
chain: QSSVTVQEGLCVHVPCSFSYPSHGWIYPGPVVHGYWFREGANTDQDAPVATNNPARAVWEETRDRFHLLGDPHTKNCTLSIRDARRSDAGRYFFRMEKGSIKWNYKHHRLSVNVTALTHRPNILIPGTLESGCPQNLTCSVPWACEQGTPPMISWIGTSVSPLDPSTTRSSVLTLIPQPQDHGTSLTCQVTFPGASVTTNKTVHLNVSYPPQNLTMTVFQGDGTVSTVLGNGSSLSLPEGQSLRLVCAVDAVDSNPPARLSLSWRGLTLCPSQPSNPGVLELPWVHLRDAAEFTCRAQNPLGSQQVYLNVSLQSKATSGVTQG
notes: Siglec-9, UniProtKB Q9Y336, extracellular region with the V, C2_(1) and C2_(2) domains, residues 26-348; The construct has a secretion signal for insect cell production before the tags; The His tag is called cleavable, but no cleavage is described; Dimer by SEC retention (85 kDa); Insect-cell glycosylation; eight putative N-glycosylation sites; Cloning details are in S1 Text; also called WT; …
B1 was tested, and the “amine oxidase activity of intact CHO-hAOC3 cells on [7-14C]benzylamine with 5 uM Siglec-9-EC added before the substrate (a similar increase with 1 uM in Fig 7C)” value [1] was 2 fold, the “stoichiometry N” value [2] was 2 and the “maximal binding at the highest concentration” value (shortened to “maximal binding”) [3] was 3120 RU. For the same binder, the Kd [4] was 1.04 ± 0.87 µM, the koff [4] was 0.00691 s⁻¹ and the kon [4] was 11200 M⁻¹ s⁻¹. The Kd [5] was 4.6 ± 0.93 µM.

B2: Siglec-9-EC/R284S (domain or fragment, UniProt Q9Y336 26-348, looked up)
chain: B1 chain with R259S
notes: Siglec-9, UniProtKB Q9Y336, extracellular region, residues 26-348, with R284S in the C2_(2) domain; Made from the Siglec-9-EC production vector by site-directed mutagenesis; also called R284S mutant; source: baculovirus, Tn5 (High Five) insect cells, secreted into the medium, purified (Ni2+ resin, Superdex 200 gel filtration)
With B2 the “maximal binding” value [3] was 1130 RU, the Kd [4] was 0.14 µM and the koff [4] was 0.00373 s⁻¹. It also gave a kon [4] of 32100 M⁻¹ s⁻¹.

B3: Siglec-9-EC/R290S (domain or fragment, UniProt Q9Y336 26-348, looked up)
chain: B1 chain with R265S
notes: Siglec-9, UniProtKB Q9Y336, extracellular region, residues 26-348, with R290S in the C2_(2) domain; Made from the Siglec-9-EC production vector by site-directed mutagenesis; also called R290S mutant; source: baculovirus, Tn5 (High Five) insect cells, secreted into the medium, purified (Ni2+ resin, Superdex 200 gel filtration)
For B3, the “maximal binding” value [3] was 1760 RU, the Kd [4] was 0.53 ± 0.5 µM and the koff [4] was 0.0031 s⁻¹. It also gave a kon [4] of 11000 M⁻¹ s⁻¹.

B4: Siglec-9-ΔV (C2_(12); residues 145-348) (domain or fragment, UniProt Q9Y336 145-348, looked up)
chain: RPNILIPGTLESGCPQNLTCSVPWACEQGTPPMISWIGTSVSPLDPSTTRSSVLTLIPQPQDHGTSLTCQVTFPGASVTTNKTVHLNVSYPPQNLTMTVFQGDGTVSTVLGNGSSLSLPEGQSLRLVCAVDAVDSNPPARLSLSWRGLTLCPSQPSNPGVLELPWVHLRDAAEFTCRAQNPLGSQQVYLNVSLQSKATSGVTQG
notes: Siglec-9, UniProtKB Q9Y336, C2_(1) and C2_(2) domains without the V domain, residues 145-348; The construct has a secretion signal for insect cell production before the tags; also called Siglec-9-EC-ΔV; source: baculovirus, Tn5 (High Five) insect cells, secreted into the medium, purified (Ni2+ resin, Superdex 200 gel filtration)
In the case of B4, the “binding relative to WT” value [6] is reported as less than 10%.
